Source: US20240254244A1 (QYUNS THERAPEUTICS, published 2024)

Experiments:
[1] = target: T1, Human IFNAR1 on cells (HEK Blue IFNα/β cells, Daudi cells, human whole blood) (human, UniProt P17181 28-557); assay: cell-based or functional assay
T1 sequence (looked up): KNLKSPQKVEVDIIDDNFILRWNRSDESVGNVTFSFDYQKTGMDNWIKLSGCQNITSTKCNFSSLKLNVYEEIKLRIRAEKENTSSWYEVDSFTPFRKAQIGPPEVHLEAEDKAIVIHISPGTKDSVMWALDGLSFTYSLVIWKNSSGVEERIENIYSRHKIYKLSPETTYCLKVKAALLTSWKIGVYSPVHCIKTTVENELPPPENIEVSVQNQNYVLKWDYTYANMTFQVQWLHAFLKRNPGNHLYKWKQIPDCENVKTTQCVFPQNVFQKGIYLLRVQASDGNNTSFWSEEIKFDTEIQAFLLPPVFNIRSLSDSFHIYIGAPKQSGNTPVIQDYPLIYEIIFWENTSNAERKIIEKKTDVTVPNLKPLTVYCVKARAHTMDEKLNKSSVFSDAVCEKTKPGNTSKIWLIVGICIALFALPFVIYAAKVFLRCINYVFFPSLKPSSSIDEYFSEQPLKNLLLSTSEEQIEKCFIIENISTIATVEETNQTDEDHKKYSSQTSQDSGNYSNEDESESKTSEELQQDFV

[2] = target: T2, Human interferon alpha receptor 1 (IFNAR1) (human, UniProt P17181 28-436); assay: SPR, Biacore T200, antibody captured on Protein A chip, antigen as analyte, 25 C, 1:1 model, mean of three
T2 construct: Soluble antigen flowed over captured antibody in Biacore; also called human IFNAR1; Human Interferon alpha/beta Receptor 1
T2 sequence: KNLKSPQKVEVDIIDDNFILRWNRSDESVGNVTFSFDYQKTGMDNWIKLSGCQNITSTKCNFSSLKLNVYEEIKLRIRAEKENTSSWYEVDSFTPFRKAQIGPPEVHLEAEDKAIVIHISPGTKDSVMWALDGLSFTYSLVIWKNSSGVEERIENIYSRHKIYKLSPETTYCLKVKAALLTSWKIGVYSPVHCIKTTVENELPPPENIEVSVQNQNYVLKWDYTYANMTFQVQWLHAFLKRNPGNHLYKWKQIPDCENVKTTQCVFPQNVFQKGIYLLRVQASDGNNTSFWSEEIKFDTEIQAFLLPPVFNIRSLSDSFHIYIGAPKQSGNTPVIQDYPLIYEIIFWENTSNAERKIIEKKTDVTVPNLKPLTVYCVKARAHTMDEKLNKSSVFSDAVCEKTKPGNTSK
Experimental: BiacoreT200 was used to detect the affinity between QX006N (HZD1203-45-IgG4.1) and human IFNAR1. All processes were performed at 25° C. A commercial Protein A chip was used to immobilize an appropriate amount of antibody through the capture method so that Rmax was around 50 RU and the capture flow rate was 10 μl/min. The antigen was gradient diluted, the flow rate of the instrument was switched to 30 μl/min, flowed through the reference channel and the fixed antibody channel in order of concentration from low to high, and flowed through buffer as the negative control. The chip was regenerated with pH1.5 glycine after each binding and dissociation was completed. The built-in analysis software of the instrument was used to select the 1:1 binding model in the Kinetics option for fitting, and the antibody's binding rate constant kₐ, dissociation rate constant kd, and dissociation equilibrium constant KD values were calculated.
The data in the table were: each sample was tested three times and the average value was calculated.

B1: QX006N (HZD1203-45-IgG4.1) (antibody, V domains shown)
VH: EVQLVESGGGLVQPGGSLRLSCAASGFSLSSYYMTWVRQAPGKGLEWVSVINVYGGTYYASWAKGRFTISRDNSKNTLYLQMNSLRAEDTAVYYCAREDVAVYMAIDLWGQGTLVTVSS
VL: AIQMTQSPSSLSASVGDRVTITCQASQSISNQLSWYQQKPGKAPKLLIYDASSLASGVPSRFSGSRSGTKFTLTISSLQPEDFATYYCLGIYGDGADDGIAFGGGTKVEIKR
notes: Humanized rabbit antibody (clone 1203#) with human IgG4 constant region, expressed in ExpiCHO-S cells; also called anti-human interferon alpha receptor 1 (IFNAR1) monoclonal antibody of the present application
[1]
  EC50 of neutralising the effect of interferon (0.8 ng/ml IFNα.2b) on Daudi cell proliferation (CellTiter-Glo): 0.0299 µg/mL
  IC50 of inhibiting interferon (0.2 ng/ml IFNα.2b) induced STAT1/2 phosphorylation in HEK Blue IFNα/β reporter cells: 0.00523 µg/mL
  IC50 of inhibiting interferon (8 ng/ml IFNα.2b with 40 ng/ml TNF-α) induced release of CXCL10/IP10 from human whole blood: 0.698 µg/mL
[2]
  Kd: 0.108 nM
  koff: 3.76e-05 s⁻¹
  kon: 347000 M⁻¹ s⁻¹

B2: Anifrolumab (antibody, V domains shown)
VH: EVQLVQSGAEVKKPGESLKISCKGSGYIFTNYWIAWVRQMPGKGLESMGIIYPGDSDIRYSPSFQGQVTISADKSITTAYLQWSSLKASDTAMYYCARHDIEGFDYWGRGTLVTVSS
VL: EIVLTQSPGTLSLSPGERATLSCRASQSVSSSFFAWYQQKPGQAPRLLIYGASSRATGIPDRLSGSGSGTDFTLTITRLEPEDFAVYYCQQYDSSAITFGQGTRLEIKR
[1]
  EC50 of neutralising the effect of interferon (0.8 ng/ml IFNα.2b) on Daudi cell proliferation (CellTiter-Glo): 0.0317 µg/mL
  IC50 of inhibiting interferon (0.2 ng/ml IFNα.2b) induced STAT1/2 phosphorylation in HEK Blue IFNα/β reporter cells: 0.00443 µg/mL
  IC50 of inhibiting interferon (8 ng/ml IFNα.2b with 40 ng/ml TNF-α) induced release of CXCL10/IP10 from human whole blood: 0.562 µg/mL
